From the RNAGym collection of RNA variant scans (doi:10.7554/elife.80360)

B1: HDV Ribozyme (parent)
chain: GGCCGGCAUGGUCCCAGCCUCCUCGCUGGCGCCGGCUGGGCAACAUUCCGAGGGGACCGUCCCCUCGGUAAUGGCGAAUGGGACCCA

Variants of: B1
Experiment: self-cleavage, relative activity (ratio to wild type); higher = more cleavage; co-transcriptional

Variant | self-cleavage
GGCCGGCAUGGUCCCAGCCUCCUCGCUGGCGCCGGCUGGGCAUCAUUCCGAGCGGACCGUCCCCUCGGUAAUGGCGAAUGGGACCCA [A43U G53C] | 0.508
GGCCGGCAUGGUACCAGCCUCCUCGGUGGCGCCGGCUGGGCAACAUUCCGAGGGGACCGUCCCCUCGGUAAUGGCGAAUGGGACCCA [C13A C26G] | 0.657
GGCAGGCAUGGUCCCAGCCUCCUCGCUGGCGCCGGCUGGGCAGCAUUCCGAGGGGACCGUCCCCUCGGUAAUGGCGAAUGGGACCCA [C4A A43G] | 0.158
GGCCGGCAUGGUCCCAGCCUCCUCGCUGGCGCCGGCUGGGCAACAUUCCGAGGGGACCGUCCCCUCGGUAAUGACGAUUGGGACCCA [G74A A78U] | 0.173
GGCCGGCAUGGUCCCAGCCUCCUCGCUGGCGCCGGCUGGGCAACAUUCCGAGGGGACCGUCCCCUCAGUAAUGGCGAAUGGGCCCCA [G67A A83C] | 0.464
GGCCGGCAUGGUCCCAGCCUCCUCGCUGGCGCCGGCUGGGCAACAUUCCGAGGGGACCGUCCCUUCGGUAAUGGCGGAUGGGACCCA [C64U A77G] | 1.01
GGCCGGCAUGGUCCCAGCGUCCUCGCUGGCGCCGGCUGGGCAACAUUCCGAGGGGCCCGUCCCCUCGGUAAUGGCGAAUGGGACCCA [C19G A56C] | 0.0489
GGCCAGCAUGGUCCCAGCCUCCUCGCUGGCGCCGGCUGGGCAACAUUCCGAGGGGGCCGUCCCCUCGGUAAUGGCGAAUGGGACCCA [G5A A56G] | 0.225
GGCCGGCAUGGUCCCAGCCUCCUCGGUGGCGCAGGCUGGGCAACAUUCCGAGGGGACCGUCCCCUCGGUAAUGGCGAAUGGGACCCA [C26G C33A] | 0.298
GGCCGGCAUGGUCCCAGCCUCCUCGCUGGCGCCGGCUGGGCAGCAUUCCGAGAGGACCGUCCCCUCGGUAAUGGCGAAUGGGACCCA [A43G G53A] | 0.532
GGCCGGCAUGGUCCCAGCCUCCUCGCUGGCGCCGGCUGGGCAUCAUUCCGAGGGGACCGUCCCCUCGGUAAUGGCGAACGGGACCCA [A43U U79C] | 0.127
GGCCGGCAUGGUCCCAGCCUCCUCGCUGGCGCCGGCUGGCCAACAUUCCGAGGGGAGCGUCCCCUCGGUAAUGGCGAAUGGGACCCA [G40C C57G] | 0.36
GGCAGGCAUGGUCCCAGCCUCCUCGCUGGCGCCGGCUGGGCAACAUUCCGAGGGGACCGUCCCCUCGGUAAUGGCGGAUGGGACCCA [C4A A77G] | 0.0369
GGCCCGCAUGGUCCCAGCCUCCUCGCUGGCGUCGGCUGGGCAACAUUCCGAGGGGACCGUCCCCUCGGUAAUGGCGAAUGGGACCCA [G5C C32U] | 0.0573
GGCCGGCAUGGUCCCAGCCUCCUCGCUGGCGCCGGCUGGGCAACAUUCCGAGGGGACCGUCCCCGCGGUAAUGGCGUAUGGGACCCA [U65G A77U] | 0.554
GUCCGGCAUGGUCCCAGCCUCCUCGCUGGCGCCGGCUGGGCAACAUUCCGAGGGGACCGUCCCCUCGGUAAUGGUGAAUGGGACCCA [G2U C75U] | 0.021
GGCCGGCAUGGUCCCAGCCUCCUCGCUGGCGCCGGCUGGGCAACAUUCCGAGGGGACCGUCCCCUCGGUAAUGGCGCAUGGGACCCU [A77C A87U] | 0.466
GGCCGGCAUGGUCCCAGCCUCCUCGCUGGCGCCGGCUGGGCAGCAUUCCGAGGGGACCGUCUCCUCGGUAAUGGCGAAUGGGACCCA [A43G C62U] | 0.646
GGCCGGCAUGGUCCCAGCCUCCUCGCUGGCGCCGGCUGGGGAACAUUCCGAGGGGACCGUCACCUCGGUAAUGGCGAAUGGGACCCA [C41G C62A] | 0.814
GGCCGGCAUGGUCCCAGCCUCCUCGCUGGCGCCGGCUGGGCAACAUUCCGAGGGGACCGUCCCCUCGUUAAUGGCCAAUGGGACCCA [G68U G76C] | 1.11
GGCCUGCAUGGCCCCAGCCUCCUCGCUGGCGCCGGCUGGGCAACAUUCCGAGGGGACCGUCCCCUCGGUAAUGGCGAAUGGGACCCA [G5U U12C] | 0.0831
GGCCGGCAAGGUCCCAGCCUCCUCGCUGGCGCCGGCUGGGCAACAUUCCGAGGGGACCGUCCCCUCGGUAAUGGCGGAUGGGACCCA [U9A A77G] | 0.751

Variant | self-cleavage
GGCCGGCAUGGUCCCAGCCUCCACGCUGGCGCCGGCUGGGCAACAUUCCGAGGGGACCGUCCCCUCGGUAAUGGCGUAUGGGACCCA [U23A A77U] | 0.567
GGCCGGCAUGGUCCCAGCCUCCUCGCUGGCGCCGGCUGGGCACCAUUCCGAGGGGACCGUCCACUCGGUAAUGGCGAAUGGGACCCA [A43C C63A] | 0.26
GGCCGGCCUGGUCCCAGCCUCCUCGCUGGCGCCGGCUGGGCAACAUUCCGAGGGGACCGUCCCCUCGGUAAUGGCGAAAGGGACCCA [A8C U79A] | 0.506
GGCCGGCAUGGUCCCAGCCUCCUCGCUGGCGCCGGCUGGGCAAUAUUCCGAGGGGACCGUCGCCUCGGUAAUGGCGAAUGGGACCCA [C44U C62G] | 0.464
GGCCGGCAUGGUCCCAGCCUCCUCGCUGGCGGCGGCUGGGCAACAUUCCGAGGGGACCGUCCCCUCGGUAAUGGCAAAUGGGACCCA [C32G G76A] | 0.271
GGCCGGCAUGGUCCCAGCCUCCUCGCUGGCGCCGGCUGGGCAACAUUCCGAGGGGACGGUCCCAUCGGUAAUGGCGAAUGGGACCCA [C58G C64A] | 0.855
GGCCGGCAUGGUCACAGCCUCCUCUCUGGCGCCGGCUGGGCAACAUUCCGAGGGGACCGUCCCCUCGGUAAUGGCGAAUGGGACCCA [C14A G25U] | 0.0652
GGCCGGCAUGGUGCCAGCCUCCUCGCUGGCGCCGGAUGGGCAACAUUCCGAGGGGACCGUCCCCUCGGUAAUGGCGAAUGGGACCCA [C13G C36A] | 0.0449
GGCCGGCAUGGUCCCAGCCUCCUCGCUGGCGCCGGCUGGGGAACAUUCCGAGGGGACCGUCCCCUCGGUAAUGGCGAAUGGGACGCA [C41G C85G] | 0.429
GGCCGACAUGGUCCCAGCCUCCUCGCUGGCGCCGGCUGGGCAACAUUCCGAGGGGACCGUCCCCUCGGUAAUGGCGAAUGGGACCCU [G6A A87U] | 0.602
GGGUGGCAUGGUCCCAGCCUCCUCGCUGGCGCCGGCUGGGCAACAUUCCGAGGGGACCGUCCCCUCGGUAAUGGCGAAUGGGACCCA [C3G C4U] | 0.0171
GGCCGGCAUGGUCCCAGCCUCCUCGCUGGCGCCGGCUGGACAACAUUCGGAGGGGACCGUCCCCUCGGUAAUGGCGAAUGGGACCCA [G40A C49G] | 0.944
GGCCGGCAUGGUCCCAGCCUCCUCGCUGGCGCCGGCUGGGCAACAUUCCAAGGGGACCGUCCCCUCGGUAUUGGCGAAUGGGACCCA [G50A A71U] | 0.881
GGCCGGCAUGGUCCCAGCCUCCUCGCUGGCGCCGGCUGGGCAACAUUCCGAGGGGACCGUCCCCUCGGUAAUGGCGAAUGGGUUCCA [A83U C84U] | 0.87
GGCCGGCAUGGUCCCAUCCUCCUCGCUGGCGCCGGCUGGGCAACAUUCCGAGGGGACCGUCCCCUCGGUAAGGGCGAAUGGGACCCA [G17U U72G] | 0
GGCCGGCAUGGUCCCAGCCUCCUCACUGGCGCCGGCUGGGCAUCAUUCCGAGGGGACCGUCCCCUCGGUAAUGGCGAAUGGGACCCA [G25A A43U] | 0.0437
GGCCGGCAUGGUCCCAGCCUCCUCACAGGCGCCGGCUGGGCAACAUUCCGAGGGGACCGUCCCCUCGGUAAUGGCGAAUGGGACCCA [G25A U27A] | 0.161
GGCCGGCAUGGUCCCAGCCUCCUCGCUGGCGCCGGCUGGGCAACAUUCCGAGGGGACCGUCGCCUCGGUAAUGGCGAAUGGGACCUA [C62G C86U] | 0.923
GCCCGGCAUGGUCCCAGCCUCCUCGCUGGCGCCGGCUGGGCCACAUUCCGAGGGGACCGUCCCCUCGGUAAUGGCGAAUGGGACCCA [G2C A42C] | 0.122
GGCCGGCAUGGUCCCAGCCUCCUCGCUGGCGCCGGCUGGGCAACAUUCCGAGGGGACCCUCCCCUCGGUAAUGGCGAAUGGGUCCCA [G59C A83U] | 0.469
GGCCGGCAUGGUCACAGCCUCCUCGCUGGCGCCGGAUGGGCAACAUUCCGAGGGGACCGUCCCCUCGGUAAUGGCGAAUGGGACCCA [C14A C36A] | 0
GGCCGGCAUGGUCACAGCCUUCUCGCUGGCGCCGGCUGGGCAACAUUCCGAGGGGACCGUCCCCUCGGUAAUGGCGAAUGGGACCCA [C14A C21U] | 0.151

Variant | self-cleavage
GGCCGGUAUGGUCUCAGCCUCCUCGCUGGCGCCGGCUGGGCAACAUUCCGAGGGGACCGUCCCCUCGGUAAUGGCGAAUGGGACCCA [C7U C14U] | 0.785
GGCCGGCAUGGUCCCAGCCUGCUCGCUGGCGCCGUCUGGGCAACAUUCCGAGGGGACCGUCCCCUCGGUAAUGGCGAAUGGGACCCA [C21G G35U] | 0.104
GGCCGGCAUGGUCCCUGCCUCCUCGCUGGCGCCGGCUGGGCAACAUUCCGAGGGGACCGUCCCCUCGUUAAUGGCGAAUGGGACCCA [A16U G68U] | 1.18
GGCCGGCAUGGUCCCAGCCUCCUCGCUGGCGCCGGCUGGGCAACAUUCCGAGGGGACCGUCUCCUCGGUAUUGGCGAAUGGGACCCA [C62U A71U] | 1.05
GGCCGGCCUGGUCCCAGCCUCCUCGCUGGCGCCGGCUGGGCAACAUUCCGAGGGGACCGUCCCCUCGGUAGUGGCGAAUGGGACCCA [A8C A71G] | 0.772
GGCCGGCAUGGGCCCAGCCUCCUCGCUGGCGUCGGCUGGGCAACAUUCCGAGGGGACCGUCCCCUCGGUAAUGGCGAAUGGGACCCA [U12G C32U] | 0.399
UGCCGGCAUGGUCCUAGCCUCCUCGCUGGCGCCGGCUGGGCAACAUUCCGAGGGGACCGUCCCCUCGGUAAUGGCGAAUGGGACCCA [G1U C15U] | 0.269
GGCCGGCACGGUCCCAGCCUCCUCGCUGGCGCCGGCUGGGCAACAUUCCGAGGGGACCGUCCCCUCGGUAAUGGCGAAUGGGACACA [U9C C85A] | 0.969
GGACGGCAUGGUCCCAGCCUCCUCGCUGGCGCCGGCUGGGCAACAUUCCGAGGGGACCGUCCCCUCGGUGAUGGCGAAUGGGACCCA [C3A A70G] | 0.686
GGCCGGCAUGGUCCCAGCCUCCUCGCUGGCGCCGGCUGGGCAACGUUCCGAGGGGACCGUCCCCUCGUUAAUGGCGAAUGGGACCCA [A45G G68U] | 0.804
GGCCGGGAUGGUCCCAGCCUCCUCGCUGGCGCCGGCUGGGCAACAUUCCGAGGGGACCGUCCCCUCGGUAAUGGCGAAUGUGACCCA [C7G G81U] | 0.0594
GGCCGGCAUGGUACCAGCCUCCUCGCUGGCGCCGUCUGGGCAACAUUCCGAGGGGACCGUCCCCUCGGUAAUGGCGAAUGGGACCCA [C13A G35U] | 0.125
GUCCGGCCUGGUCCCAGCCUCCUCGCUGGCGCCGGCUGGGCAACAUUCCGAGGGGACCGUCCCCUCGGUAAUGGCGAAUGGGACCCA [G2U A8C] | 0
AGCCGGCAUGGUCCCAGCCUCCUCGCUGGCGCCGGCUGGGCCACAUUCCGAGGGGACCGUCCCCUCGGUAAUGGCGAAUGGGACCCA [G1A A42C] | 0.0369
GGCCUGCAUGGUCCCAGCCUCCUCUCUGGCGCCGGCUGGGCAACAUUCCGAGGGGACCGUCCCCUCGGUAAUGGCGAAUGGGACCCA [G5U G25U] | 0
GGGCGGCAUGGUCCGAGCCUCCUCGCUGGCGCCGGCUGGGCAACAUUCCGAGGGGACCGUCCCCUCGGUAAUGGCGAAUGGGACCCA [C3G C15G] | 0.266
GGCCGGCAUGGUCCCAGCCUCCUCUCUGGCUCCGGCUGGGCAACAUUCCGAGGGGACCGUCCCCUCGGUAAUGGCGAAUGGGACCCA [G25U G31U] | 0.0875
GGCCGGCAUGGUCCCAGCCUCCUCGCUGGCGCAGGAUGGGCAACAUUCCGAGGGGACCGUCCCCUCGGUAAUGGCGAAUGGGACCCA [C33A C36A] | 0.213
GGGCGGCAUGGUCCCAGCCUCCUCGCUGGCGCCGGCUGGGCAACAUUCCGAGAGGACCGUCCCCUCGGUAAUGGCGAAUGGGACCCA [C3G G53A] | 0.742
GACCGGAAUGGUCCCAGCCUCCUCGCUGGCGCCGGCUGGGCAACAUUCCGAGGGGACCGUCCCCUCGGUAAUGGCGAAUGGGACCCA [G2A C7A] | 0
